Results reported in the RNAGym collection of RNA variant scans (doi:10.1073/pnas.2313332121).
Variants at the floor of the assay were thinned out.

B1: TPR 5TU (parent)
chain: GGAUCUUCUCGAUCUAACAAAAAAGACAAAUCUGCCACAAAGCUUGAGAGCAUCUUCGGAUGCAGAGGCGGCAGCCUUCGGUGGCGCGAUAGCGCCAACGUUCUCAACUAUGACACGCAAAACGCGUGCUCCGUUGAAUGGAGUUUAUCAUG

Variants of: B1
Assay: polymerase ribozyme fitness, log enrichment relative to wild type (log ratio); higher = more active; in vitro selection for triplet polymerase activity
How it was run: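 The heterodimeric triplet polymerase ribozyme's subunits were each mutagenized into PCR-built libraries and transcribed. Every library was selected once, in triplicate, by annealing with a biotinylated primer, the partner subunit and triplets, incubating frozen at −7 °C, gel-excising extended constructs, capturing on streptavidin beads and running RT-PCR. Input and output libraries were Illumina-sequenced, with genotypes kept only at ≥10 input reads and ≥1 read per output. Fitness, from inverse-variance-weighted replicate averages, is the base-2 logarithm of genotype enrichment over wild-type enrichment.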

Point of comparison: C5U C18U C85A, “polymerase ribozyme fitness (log ratio)” value -0.0024. Against it:
- U7C C8G A20U U55A A66U G88A C99G G143U — lower, ≤ -4.2
- U7G A17C A142U U146C — lower, -3.89
- U6C C18G A23G C27U A30G C54U C63A G84A C103U — lower, ≤ -4.2
- U6G A52C C96G A115G — lower, -3.74
- C8A A12C — lower, -3.07
- U6G G11A A19C A21C A24G C36G U56A U82A A142C — lower, ≤ -4.2
- U6A A22U C27A C54A C57A C76U U78C C87U G128C A137G G141C — lower, ≤ -4.2
- U7G C103A — lower, -3.85
- U6A A23U G83A C105U C108A — lower, ≤ -4.2
- C8A A40U G71U C85G — lower, ≤ -4.2
- U6G A28U C38U A66G C95G A120U A150U — lower, ≤ -4.2
- C5U A17C C54A C85A C93U C105G A113G G141A — lower, ≤ -4.2
- U7A C14G U15G G88A — lower, -3.61
- U6C C35G A66G C96U U109A G126U — lower, ≤ -4.2
- C5U C14U A23C U90C C96A C103G G124U — lower, ≤ -4.2
- C5G U135C — lower, -2.4
- U7G C125U — lower, -3.39
- C8A A17G A21U C38U G86A C99G G126U U139G — lower, ≤ -4.2
- U6C U78G U111G U134C — lower, -4.14
- C8A A19U G48C U56A C93U G140A A142G A150C — lower, ≤ -4.2
- U6G A23C G88C A97U — lower, ≤ -4.2
- U6A G25C G141A U146A — lower, -2.69
- C5U C14U C38A C57A A66U G67A G84U A110G — lower, ≤ -4.2
- U6A A12U A20U A41U A89C A120U — lower, -3.91
- U7A G62C — lower, ≤ -4.2
- U6C U55G — lower, -0.825
- U6A A12G A16U C43U G83A — lower, ≤ -4.2
- C5U C85U U127C U145A — lower, -2.5
- C5U U6C C10U G83C — lower, -2.89
- U7C A113G U139C — lower, ≤ -4.2
- U7G U55C C99U — lower, ≤ -4.2
- U7G C75G G86C — lower, ≤ -4.2
- U7A C35A A39U G50A G92U C95A U130A U135A — lower, ≤ -4.2
- C8G A16C A21G G48C C75A C87U A110U U144G — lower, ≤ -4.2
- U6G U15A C95G C96U U101G C103A C131A C149A — lower, ≤ -4.2
- U6A G50C G86U U102C A121C — lower, ≤ -4.2
- U7A C51U — lower, -3.25
- U6A A22U — within 0.2 log units, 0.00924
- U6G A52C U55C G71A G86C A119U — lower, ≤ -4.2
- C8A U33C U44A A52U C85U U104A A106G C125G G152U — lower, ≤ -4.2
- C5U C51A G117C — lower, -2.16
- C8A C87G — lower, ≤ -4.2
- C8A C87U — lower, -3.89
- U6G U45C C76A C93G C103A — lower, ≤ -4.2
- U7G A52U G140C — lower, ≤ -4.2
- U7G U13A A17U A98U A107C U146C — lower, ≤ -4.2
- C8A C51A C57A G59A U61A G67C C95U C125U U134C U139A — lower, ≤ -4.2
- U7C C14U U53A C96U U104C C116A G124U U135G — lower, ≤ -4.2
- U7G U56A G59C U78C — lower, -2.83
- U7C A41C C51U C54G U55A G58A C76G C87G C103A C125U — lower, ≤ -4.2
- C8A A17C G62A G68A C85U U111G — lower, ≤ -4.2
- U6A C79A C99U A107G — lower, ≤ -4.2
- C5U C18G G59A C93U C132U — lower, -2.33
- U6C A22U U31G C93A C114G — lower, ≤ -4.2
- U6G A98U — lower, -0.985
- U7C C35U C87G U104G — lower, -4.04
- U7G A22G C36A U56G G62U G88A — lower, ≤ -4.2
- U7A C63U A73G A120G U146A — lower, ≤ -4.2
- C8A C85A C87A G124A — lower, ≤ -4.2
- U6G C54A C75G C85A C105U A106U U111A G136U — lower, ≤ -4.2
- C8A U55A — lower, -3.18
- C5U U45A — lower, -2.1
- U6A G81C G94U A113U C114U U151C — lower, ≤ -4.2
- U7C C8U U45A G68C C87G A91C — lower, ≤ -4.2
- U6A A17G G58C A60C C69U C118U U146C — lower, -4.14
- U6G C35U A91G A98G — lower, -4.08
- C5U C75U C85U — higher, 1.35
- U6G C76U C93G — lower, -2.95
- U7C C93G — lower, -4.04
- U6A C10A C27G G46C C69A C93U G94C A97C — lower, ≤ -4.2
- U6A A20G U45A — lower, -3.51
- U6G C14A C79A U145C — lower, ≤ -4.2
- U7G C14G U55G G58U G80C A107G C118U G140C — lower, ≤ -4.2
- U7A G25U A39C A49U C54G C95U U111G — lower, ≤ -4.2
- U7A G11U G50A A64G G68A C72U C87U A115U A122G C149A U151A — lower, ≤ -4.2
- C8A A24U G71A G84A G143C — lower, ≤ -4.2
- C8A U9C C18A A19G G58U G84A U144C A147C — lower, ≤ -4.2
- U7G C38U — lower, -2.77
- U6A A12G A30C A66U C95A A106G A120G G126C A150U — lower, ≤ -4.2
- C5U G143C — lower, -1.95
- U6C A47U — lower, -0.576
- U6C A49C C99A U146C — lower, ≤ -4.2
- C8A A49G A60U C75U U78C C85G C116G G140A — lower, ≤ -4.2
- C5G U55A C85U C116U — lower, -1.06
- C5U A22U A98G A122U — higher, 0.571
- C8A A19C C35G A52C C87G — lower, ≤ -4.2
- C8A A23C C38U A142G — lower, ≤ -4.2
- U6G A12U G42C C76U C96G U134G U146G — lower, ≤ -4.2
- U7G C32U C38U U55G C57U U61A G62A G88A U146C — lower, ≤ -4.2
- U6G U53A G80U — lower, ≤ -4.2
- U6A A12U G50A C149A — lower, ≤ -4.2
- C5U C57U C87A A91C — lower, ≤ -4.2
- U6C G74U U102A C123A — lower, ≤ -4.2
- U7A A28C C57U C87G C95U C125A — lower, ≤ -4.2
- U7G A17C A39C A91G C114G — lower, ≤ -4.2
- U7G A17U A52C C85U C116A — lower, -3.83
- U7A G42U C76G C96G C99A U144A C149G — lower, ≤ -4.2
- U6G A26U A52G G141U U145G — lower, ≤ -4.2
- U6G C10G G68A C69U G84A — lower, ≤ -4.2
- U6G A39G A49C — lower, ≤ -4.2
- U7G A21U — lower, -2.97
- U7A A17U A24G U56A C93U U134A — lower, ≤ -4.2
- U7A U61A A119U — lower, ≤ -4.2
- U6A A23C C76G G94A G141C G152U — lower, ≤ -4.2
- U6G A20U G25A U31G C87A C96U C129A G136A G140C A150C — lower, ≤ -4.2
- U6C C36A G67C C85U G124C C132U — lower, ≤ -4.2
- U6G A21U U45C A66U G141A U151A — lower, ≤ -4.2
- C8A G62A G92A — lower, ≤ -4.2
- U7C U53A — lower, -2.82
- U6G A52G A106C C116A — within 0.2 log units, -0.169
- U6A U7G U13A C35A C54A G71U A91U U101A U127C G141U — lower, ≤ -4.2
- C8A C87A C99U — lower, ≤ -4.2
- C8A A37C G59C C75A G92A — lower, ≤ -4.2
- C8A C76G G86U U109G G141U — lower, ≤ -4.2
- U7A C93U — lower, -3.98
- U7A C93G — lower, ≤ -4.2
- C5U A37U C51U — lower, -1.26
- C5G U53A C54G U77G U82C G92C C129G U144C — lower, ≤ -4.2
- C8A A23C A26C U33C U78G A98G U144G — lower, ≤ -4.2
- U6G A17C A37G A52C C54U C96A A122U U134C — lower, ≤ -4.2
- U7C U53A C85U — lower, -3.46
- U7A C38U G65A A107G G136U U146C — lower, ≤ -4.2
- U6A A17G C27U A66U U145A — lower, ≤ -4.2
- C8A A20C A22G G42C U53A C95U — lower, ≤ -4.2
- U7G A21G U61G C85U C87A A106C — lower, ≤ -4.2
- C8A C54U — lower, -3.64
- U6A C69U — lower, -1.1
- C8G A16C C93U A137G — lower, ≤ -4.2
- C5G U77C C87G U134G — lower, ≤ -4.2
- C8A A64G U82A A91U A97C A122G A142C — lower, ≤ -4.2
- U7G C72U C87A A98U A138C — lower, ≤ -4.2
- C8A G136A — lower, -3.96
- U7C C35A C87A C95U C116G — lower, ≤ -4.2
- U7C A16U G50A C54A C57A C72G C85G A98U G141A — lower, ≤ -4.2
- U7G G50C A52C G84A C114U A138G — lower, ≤ -4.2
- U6A U15G G46C C76U C93G — lower, ≤ -4.2
- U6C U45A — lower, -3.75
- U7G C51U G88C G92U C95U G100U — lower, ≤ -4.2
- U7A C32G A66C G68A C87A G128U G136C — lower, ≤ -4.2
- C8A C57G U82A A98G — lower, ≤ -4.2
- U7A A29G C85A C114A A121G U134C — lower, ≤ -4.2
- U6C A49U C63G — lower, -2.48
- U6C A21G C27A C54U G80C C87A U109C A147U — lower, ≤ -4.2
- C8A U9G A12C A29U A30U G88U C93A A107G — lower, ≤ -4.2
- U7G A39U C69U C95U C129G — lower, ≤ -4.2
- U6G U146A — lower, -1.17
- U6A C10G C75G U78C C96G A97G U102G — lower, ≤ -4.2
- C8A G94A C95A — lower, ≤ -4.2
- C5U A22U C69A G88U — lower, ≤ -4.2
- C8A G94C — lower, -3.7
- U7A G11C A52G A89C A91G C95U U111C C131U — lower, ≤ -4.2
- U6A C54U C85G A115C — lower, -2.97
- C8A A17G A98G U144A — lower, ≤ -4.2
- U6A C75U C93G C131G — lower, ≤ -4.2
- C8A U15G G59C C114U A138G — lower, ≤ -4.2
- C8A G42A A49C G83U C93A G94A — lower, ≤ -4.2
- U6G C96A A122U — lower, -0.578
- C8A U15G U55A A73U A91G G140A — lower, ≤ -4.2
- C5U G62A U90G A138G A142U — lower, ≤ -4.2
- C5U C99U — higher, 0.209
- U6C G48C G59U U145C — lower, -0.905
- C8A G86U — lower, -3.72
- U6A C85U C95A A120G — lower, -1.78
- U6G C10A A40G A60G C75A G80C A107U G126A G133U U139G G143C — lower, ≤ -4.2
- U6C A40U C51U A52C C99U G112C — lower, ≤ -4.2
- U7A C72G G80C C96U U104C A122G U146A — lower, ≤ -4.2
